T1: FcγRIIa type R extracellular domain with C-terminal His tag (human, UniProt P12318 34-217)
T1 chain: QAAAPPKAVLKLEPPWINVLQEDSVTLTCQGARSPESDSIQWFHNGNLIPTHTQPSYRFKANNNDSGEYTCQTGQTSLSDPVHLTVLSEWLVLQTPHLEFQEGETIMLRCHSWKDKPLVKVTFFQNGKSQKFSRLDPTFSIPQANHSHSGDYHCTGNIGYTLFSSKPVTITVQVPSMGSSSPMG

T2: FcγRIIb extracellular domain with C-terminal His tag (human, UniProt P31994 43-217)
T2 construct: extracellular domain; For crystallography it was expressed with kifunensine and trimmed with Endo F1; also called FcgRIIb; FcγRIIb extracellular region; not shown: His tag attached to the C terminus
T2 sequence (looked up): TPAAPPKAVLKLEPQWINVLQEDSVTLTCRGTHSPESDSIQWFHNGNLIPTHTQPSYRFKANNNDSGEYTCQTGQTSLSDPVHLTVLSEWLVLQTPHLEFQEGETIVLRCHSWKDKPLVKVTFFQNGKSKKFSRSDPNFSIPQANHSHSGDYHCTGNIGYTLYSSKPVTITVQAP


Key:
[1] = target: T1, FcγRIIa type R extracellular domain …; assay: SPR binding amount, relative to GpH7-AP001/GpH7-BF648/GpL16-k0
[2] = target: T2, FcγRIIb extracellular domain with …; assay: as above
[3] = target: T2, FcγRIIb extracellular domain with …; assay: SPR binding amounts, FcgRIIb divided by FcgRIIaR

Binder | binding amount to FcgRIIaR when that of GpH7-AP001/GpH7-BF648 is defined as 100 [1] | binding amount to FcgRIIb when that of GpH7-AP001/GpH7-BF648 is defined as 100 [2] | amount binding to FcgRIIb/amount binding to FcgRIIaR [3]
GpH7-AP001/GpH7-BP057/GpL16-k0 (antibody, human IgG1, kappa, Heterodimerized anti-glypican 3 IgG1; copies: 1 + 1 + 2) heavy 1: QVQLVQSGAEVKKPGASVTVSCKASGYTFTDYEMHWIRQPPGEGLEWIGAIDPKTGDTAYSESFQDRVTLTADKSTSTAYMELSSLTSEDTAVYYCTRFYSYTYWGQGTLVTVSSASTKGPSVFPLAPSSKSTSGGTAALGCLVKDYFPEPVTVSWNSGALTSGVHTFPAVLQSSGLYSLSSVVTVPSSSLGTQTYICNVNHKPSNTKVDKKVEPKSCDKTHTCPPCPAPELLGGDSVFLFPPKPKDTLMISRTPEVTCVVVDVSHEDPEVKFNWYVDGVEVHNAKTKPREEQYNSTYRVVSVLTVLHQDWLNGKEYKCKVSNKALPAPIEKTISKAKGQPREPQVYTLPPSRKELTKNQVSLTCLVKGFYPSDIAVEWESNGQPENNYKTTPPVLDSDGSFFLYSKLTVDKSRWQQGNVFSCSVMHEALHNRYTQKSLSLSP heavy 2: not shown light: DIVMTQSPLSLPVTPGEPASISCQASESLVHSNRNTYLHWYLQKPGQSPQLLIYKVSNRFSGVPDRFSGSGSGTDFTLKISRVEAEDVGVYYCSQNTHVPPTFGQGTKVEIERTVAAPSVFIFPPSDEQLKSGTASVVCLLNNFYPREAKVQWKVDNALQSGNSQESVTEQDSKDSTYSLSSTLTLSKADYEKHKVYACEVTHQGLSSPVTKSFNRGEC | 561 | 121 | 0.9
GpH7-A5/GpH7-BF648/GpL16-k0 (antibody, human IgG1, kappa, Heterodimerized anti-glypican 3 IgG1; P238D in the GpH7-B3 chain only) heavy 1: not shown heavy 2: not shown light: DIVMTQSPLSLPVTPGEPASISCQASESLVHSNRNTYLHWYLQKPGQSPQLLIYKVSNRFSGVPDRFSGSGSGTDFTLKISRVEAEDVGVYYCSQNTHVPPTFGQGTKVEIERTVAAPSVFIFPPSDEQLKSGTASVVCLLNNFYPREAKVQWKVDNALQSGNSQESVTEQDSKDSTYSLSSTLTLSKADYEKHKVYACEVTHQGLSSPVTKSFNRGEC | 677 | 131 | 0.8
GpH7-AP001/GpH7-BP044/GpL16-k0 (antibody, human IgG1, kappa, Heterodimerized anti-glypican 3 IgG1; copies: 1 + 1 + 2) heavy 1: QVQLVQSGAEVKKPGASVTVSCKASGYTFTDYEMHWIRQPPGEGLEWIGAIDPKTGDTAYSESFQDRVTLTADKSTSTAYMELSSLTSEDTAVYYCTRFYSYTYWGQGTLVTVSSASTKGPSVFPLAPSSKSTSGGTAALGCLVKDYFPEPVTVSWNSGALTSGVHTFPAVLQSSGLYSLSSVVTVPSSSLGTQTYICNVNHKPSNTKVDKKVEPKSCDKTHTCPPCPAPELLGGDSVFLFPPKPKDTLMISRTPEVTCVVVDVSHEDPEVKFNWYVDGVEVHNAKTKPREEQYNSTYRVVSVLTVLHQDWLNGKEYKCKVSNKALPAPIEKTISKAKGQPREPQVYTLPPSRKELTKNQVSLTCLVKGFYPSDIAVEWESNGQPENNYKTTPPVLDSDGSFFLYSKLTVDKSRWQQGNVFSCSVMHEALHNRYTQKSLSLSP heavy 2: not shown light: DIVMTQSPLSLPVTPGEPASISCQASESLVHSNRNTYLHWYLQKPGQSPQLLIYKVSNRFSGVPDRFSGSGSGTDFTLKISRVEAEDVGVYYCSQNTHVPPTFGQGTKVEIERTVAAPSVFIFPPSDEQLKSGTASVVCLLNNFYPREAKVQWKVDNALQSGNSQESVTEQDSKDSTYSLSSTLTLSKADYEKHKVYACEVTHQGLSSPVTKSFNRGEC | 609 | 127 | 0.8
GpH7-A5/GpH7-B3/GpL16-k0 (antibody, human IgG1, kappa, Heterodimerized anti-glypican 3 IgG1 (A5: D356K/H435R; B3: K439E); also called A5/B3) heavy 1: not shown heavy 2: not shown light: DIVMTQSPLSLPVTPGEPASISCQASESLVHSNRNTYLHWYLQKPGQSPQLLIYKVSNRFSGVPDRFSGSGSGTDFTLKISRVEAEDVGVYYCSQNTHVPPTFGQGTKVEIERTVAAPSVFIFPPSDEQLKSGTASVVCLLNNFYPREAKVQWKVDNALQSGNSQESVTEQDSKDSTYSLSSTLTLSKADYEKHKVYACEVTHQGLSSPVTKSFNRGEC | 570 | 77 | 0.5
GpH7-AP001/GpH7-BP063/GpL16-k0 (antibody, human IgG1, kappa, name in EU numbering, Heterodimerized anti-glypican 3 IgG1) heavy 1: QVQLVQSGAEVKKPGASVTVSCKASGYTFTDYEMHWIRQPPGEGLEWIGAIDPKTGDTAYSESFQDRVTLTADKSTSTAYMELSSLTSEDTAVYYCTRFYSYTYWGQGTLVTVSSASTKGPSVFPLAPSSKSTSGGTAALGCLVKDYFPEPVTVSWNSGALTSGVHTFPAVLQSSGLYSLSSVVTVPSSSLGTQTYICNVNHKPSNTKVDKKVEPKSCDKTHTCPPCPAPELLGGDSVFLFPPKPKDTLMISRTPEVTCVVVDVSHEDPEVKFNWYVDGVEVHNAKTKPREEQYNSTYRVVSVLTVLHQDWLNGKEYKCKVSNKALPAPIEKTISKAKGQPREPQVYTLPPSRKELTKNQVSLTCLVKGFYPSDIAVEWESNGQPENNYKTTPPVLDSDGSFFLYSKLTVDKSRWQQGNVFSCSVMHEALHNRYTQKSLSLSP heavy 2: not shown light: DIVMTQSPLSLPVTPGEPASISCQASESLVHSNRNTYLHWYLQKPGQSPQLLIYKVSNRFSGVPDRFSGSGSGTDFTLKISRVEAEDVGVYYCSQNTHVPPTFGQGTKVEIERTVAAPSVFIFPPSDEQLKSGTASVVCLLNNFYPREAKVQWKVDNALQSGNSQESVTEQDSKDSTYSLSSTLTLSKADYEKHKVYACEVTHQGLSSPVTKSFNRGEC | 161 | 69 | 1.7

Source: US20210261648A1 (published 2021)
